Test results published in patent publication US9422369 (QUEEN MARY AND WESTFIELD COLLEGE, dated 2016).
Ends that are not written are not given here.

Target: T1, peptide antigen EDGIKRIQDDC-biotin (from AT1-receptor N-terminal region) (rat (sequence also found in human and …))
T1 construct: Coated on Maxisorp plates for the ELISA; also called antigenic peptide; biotinylated peptide antigen
T1 peptide: EDGIKRIQDDC-biotin
Test: ELISA, coated EDGIKRIQDDC-biotin, anti-His-tag HRP detection; reference is the murine scFv
Protocol: IgM for comparative binding studies was purified as previously described for cellular invasion studies. The extinction coefficient used for IgM was 1.18 (Johnstone A, Thorpe R. *Immunochemistry in practice*. 2nd ed. Oxford: Blackwell Scientific Publications (1987)). Testing of Antigen Binding Using ELISA Enzyme-linked immunosorbant assays (ELISAs) were carried out in Maxisorp 96-well plates coated with Peptide antigen […]-biotin (SEQ ID NO: 14) (2-8 ug/ml in carbonate buffer pH 9.6) overnight at 4 or 37 C. The coated wells were blocked using 1% alkaline soluble casein (Blocking buffer) for 1 h at RT, then washed three times with PBS containing 0.1% v/v Tween 20. ScFv samples diluted between 1:1 to 1:100 in PBS-T were added and incubated for 1 h at RT before washing as before. A secondary HRP-conjugated anti-His-Tag antibody was then added (diluted 1:1000 in blocking buffer) for 1 h at RT. Wells were then washed three times in PBS-T then twice with PBS (without Tween 20). 100 µl of TMB substrate solution was added and colour was allowed to develop for 30 min, at which time 100 µl of 2M sulphuric acid was added to stop the reaction. Absorbance at 450 nm was read on a plate reading spectrophotometer. Protein concentrations were determined using an Eppendorf Biophotometer reading at 280 nm and using an extinction coefficient for the scFv of 1.7 as above.

B1: humanised scFv variant HuCY, His-tagged (scFv, V domains shown)
VH: QVQLVQSGPELVKPGASVKISCKASGYSFTGYNMNWVKQAPGKSLEWIGNIDPYYGGTTYNQKFKGKATLTVDKSSSTAYMQLKSLRSEDTAVYYCAREVDYWGQGTTVTVSS
notes: Resurfaced variant of 12D, changed only in the framework regions; not shown: C-terminal His-tag from the expression vector
fold binding in ELISA against the murine scFv: 5 fold
